Earlier results as cited in paper PMC8777194.

Molecular target: Leader protein L L (Encephalomyocarditis virus) (UniProt P03304)

## 2A protein 2A (from UniProt P03304)
  Kd: 1500 nM
